In patent US20240158448A1, “MULTIVALENT NANO-'SELF' PEPTIDES AND USES THEREOF” (THE TRUSTEES OF THE UNIVERSITY OF PENNSYLVANIA, priority 2021, published 2024):
Entries after “also recorded” stand apart in the source; their conditions may differ. Non-standard residues stand in square brackets, D forms with d. Primed or numbered codes have the meaning given here. No end group written: not given here. PEG5′ = linker of 5 PEG units between residues

Assays:
THP-1 macrophages = assay: Peptide inhibition assay (competition with FAM-labeled nS-F on THP-1 macrophages); assay type: binding, human; conditions: pre-treatment with unlabeled peptide
Description: Peptide inhibition assay. THP-1 monocytes were PMA differentiated in RPMI for 48 hours. […] To measure background internalization of the FAM-labeled peptides, nS-X-FAM was used. To determine the efficacy of the bivalent peptides to inhibit SIRPα binding, nS-X was used. Excess peptides were washed off with PBS and cells were fixed with 4% formaldehyde for 15 minutes at RT, washed with PBS, stained with 1 μg/mL Hoechst 33342, and then washed with PBS again. Fluorescence imaging was performed as described elsewhere herein and quantification was done using ImageJ.

[1] = Pre-clinical safety: intravenous nS-FF injections in mice; assay type: in vivo, mouse
Description: FIGS. 23A-23D illustrate that pre-clinical assessments indicate nS-FF is safe in vivo Phase 1 pre-clinical trial: Intravenous injections of nS-FF were done for four consecutive days followed by blood withdrawal 24 hours after last injection.
Phase 1 clinical trials for safety of anti-CD47 in patients have shown that infusion into the bloodstream decreases RBC numbers (i.e. hematocrit) and increases reticulocytes (i.e. new RBCs), and related blood safety concerns apply to a bivalent CD47-binding protein made with SIRPα domains fused to a macrophage-binding domain (Fc domain). […] This corresponds to about 8 μM in the blood, assuming rapid mixing and no dilution within the ˜1.5 mL blood volume of the mouse. Withdrawal of ˜140 μL from this blood volume was necessary to obtain a complete hematology profile, and such a volume is expected to cause slight decreases in hematocrit and platelets as shown (FIGS. 23A-23B). Consistent with this loss, more RBCs should be produced in each mouse to compensate for the RBC loss, and the ˜30% increase in reticulocytes after the first two blood draws over 11 days (FIG. 23C) is similar to the prior amount of blood removed (˜300 μl/1500 μl). The mice (˜14 weeks) also continued to gain weight at the same rates (˜5% over 11 days) regardless of peptide injections. These changes are thus expected but, importantly, unaffected by the nSFF peptide, which establishes some safety.

SIRPα = target: T1, SIRPα (Homo sapiens, UniProt P78324); assay: CD47-Fc Inhibition Assay on THP-1 macrophages; assay type: binding; conditions: 1 μM or 50 μM peptide, 2 μg/mL CD47-Fc, anti-Fc fluorescence
T1 construct: THP-1 monocytes were PMA differentiated in RPMI for 48 h; endogenous in cells; host or cells: PMA-differentiated THP-1 macrophages
Description: CD47-Fc Inhibition Assay. THP-1 monocytes were PMA differentiated in RPMI for 48 h. The macrophages were washed with RPMI media and then incubated with 1 μM or 50 μM of nano- Self peptides for 1 h at 37° C., 5% CO2, and 95% humidity. After washing, the macrophages were incubated with Human Trustain FcX Fc receptor blocking solution (Biolegend) for 10 min at RT and then incubated with 2 μg/mL CD47-Fc fusion protein (ACRO Biosystems) for 1 h at 37° C., 5% CO2, and 95% humidity. As a negative control, B6H12 was pre-mixed with CD47-Fc at 4° C. on a rotator for 1 h. The macrophages were then washed and incubated with 0.5 μg/mL goat anti-human IgG Fc DyLight 488 (Thermo Fischer) for 1 h at 37° C., 5% CO2, and 95% humidity. Finally, the macrophages were washed, fixed, Hoechst 33342 stained, and imaged as described above.
To determine whether the nS peptides bind to SIRPα, nS-FF and nS-F4 were used as soluble competitive inhibitors of saturable CD47-Fc fusion protein binding to macrophages (FIG. 20). Addition of multivalent nS peptides was followed by Fc-receptor blockade to minimize Fc-driven binding of construct. Afterwards, CD47-Fc was added and then finally anti-Fc fluorescence imaging was performed (FIG. 20, left).

Substance: (VTELFREG-PEG5)2-K (VTELFREG[PEG5′]K[PEG5′]GERFLETV; not fully specified; also: bivalent lysine core) [nS-FF, bivalent nS-F linked through PEG5 linkers to a C-terminal Lys]
- inhibition of monovalent nS-F-FAM binding to macrophages (THP-1 macrophages): further decreased
- increase in reticulocytes ([1]; after the first two blood draws over 11 days, unaffected by peptide): ~30%
- safety: mouse hematology and body weight ([1]; four daily tail-vein injections of 1 mg/kg, 1 mg/kg): safe, with no anemia or weight loss; also recorded: no differences versus PBS vehicle control
- body weight gain ([1]; over 11 days, same rates regardless of peptide injections): ~5%
- level of inhibition of CD47-Fc binding (SIRPα): as inhibitory as anti-CD47
